Reference: the supplement of paper PMC9112550, “Optimization of the antimicrobial peptide Bac7 by deep mutational scanning” (BMC Biology, 2022)

Test system: Escherichia coli TOP10
Assay: shrunken log2 fold change of peptide-encoding DNA abundance (4.5 h post-induction vs induction); higher = less antimicrobial activity (less host growth inhibition)
Conditions: time post-induction: 4.5 h; library: site-saturation at positions 5, 18, 19, 20
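Further: peptides expressed intracellularly from a pBAD plasmid library in pooled LB shake-flask culture, induced with 0.3% L-arabinose, DNA abundance read by NGS, three biological replicates, DESeq2 with apeglm shrinkage.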

| Sequence | shrunken log2 fold change |
| --- | --- |
| RRIRERPPRLPRPRPRPQFQPRP | -0.0426 |
| RRIRHRPPRLPRPRPRPAFMPRP | -0.193 |
| RRIRIRPPRLPRPRPRPETGPRP | -0.322 |
| RRIRGRPPRLPRPRPRPGQLPRP | 0.178 |
| RRIRERPPRLPRPRPRPQKVPRP | -0.102 |
| RRIRQRPPRLPRPRPRPPRRPRP | 0.852 |
| RRIRFRPPRLPRPRPRPFQCPRP | -0.0784 |
| RRIRPRPPRLPRPRPRPMANPRP | 1.35 |
| RRIRTRPPRLPRPRPRPHDVPRP | 0.00489 |
| RRIRYRPPRLPRPRPRPCPLPRP | -1.91 |
| RRIRGRPPRLPRPRPRPQAVPRP | 0.295 |
| RRIRRRPPRLPRPRPRPCQQPRP | -0.0197 |
| RRIRARPPRLPRPRPRPWIKPRP | -0.0328 |
| RRIRERPPRLPRPRPRPGVPPRP | 0.149 |
| RRIRLRPPRLPRPRPRPIMFPRP | -0.488 |
| RRIRHRPPRLPRPRPRPTKLPRP | -0.255 |
| RRIRHRPPRLPRPRPRPVVFPRP | -0.147 |
| RRIRIRPPRLPRPRPRPQQEPRP | -0.056 |
| RRIRGRPPRLPRPRPRPNISPRP | 0.231 |
| RRIRPRPPRLPRPRPRPCERPRP | 0.0579 |
| RRIRFRPPRLPRPRPRPQQHPRP | -0.38 |
| RRIRHRPPRLPRPRPRPKNHPRP | -0.566 |
| RRIRERPPRLPRPRPRPSYKPRP | -1.27 |
| RRIRWRPPRLPRPRPRPIYLPRP | -0.674 |
| RRIRLRPPRLPRPRPRPHWAPRP | -0.177 |

| Sequence | shrunken log2 fold change |
| --- | --- |
| RRIRNRPPRLPRPRPRPHCNPRP | -0.196 |
| RRIRARPPRLPRPRPRPFRSPRP | -0.0968 |
| RRIRQRPPRLPRPRPRPGFWPRP | 0.353 |
| RRIRWRPPRLPRPRPRPDSQPRP | -0.0844 |
| RRIRYRPPRLPRPRPRPGQSPRP | -0.108 |
| RRIRTRPPRLPRPRPRPECEPRP | 0.154 |
| RRIRQRPPRLPRPRPRPNVEPRP | -0.0222 |
| RRIRYRPPRLPRPRPRPFTNPRP | 0.0209 |
| RRIRERPPRLPRPRPRPMAVPRP | 0.19 |
| RRIRLRPPRLPRPRPRPCNGPRP | -0.00674 |
| RRIRCRPPRLPRPRPRPSAWPRP | 0.0978 |
| RRIRFRPPRLPRPRPRPFVNPRP | -1.51 |
| RRIRARPPRLPRPRPRPSYAPRP | -0.165 |
| RRIRHRPPRLPRPRPRPSNSPRP | -0.798 |
| RRIRDRPPRLPRPRPRPVLHPRP | 0.0367 |
| RRIRVRPPRLPRPRPRPWNHPRP | -0.152 |
| RRIRQRPPRLPRPRPRPFLMPRP | -0.421 |
| RRIRNRPPRLPRPRPRPRWIPRP | 0.0158 |
| RRIRTRPPRLPRPRPRPLQRPRP | -0.063 |
| RRIRRRPPRLPRPRPRPNMPPRP | -0.342 |
| RRIRARPPRLPRPRPRPWATPRP | 0.494 |
| RRIRARPPRLPRPRPRPCLGPRP | 0.0637 |
| RRIRIRPPRLPRPRPRPHAAPRP | -0.298 |
| RRIRGRPPRLPRPRPRPSQEPRP | 0.172 |
| RRIRTRPPRLPRPRPRPGHNPRP | -0.184 |

| Sequence | shrunken log2 fold change |
| --- | --- |
| RRIRQRPPRLPRPRPRPLNYPRP | -0.548 |
| RRIRYRPPRLPRPRPRPSFLPRP | -0.994 |
| RRIRGRPPRLPRPRPRPDDTPRP | 0.944 |
| RRIRDRPPRLPRPRPRPMLCPRP | -0.00642 |
| RRIRDRPPRLPRPRPRPTWTPRP | -0.043 |
| RRIRPRPPRLPRPRPRPRIVPRP | -0.0281 |
| RRIRDRPPRLPRPRPRPVSIPRP | -0.105 |
| RRIRSRPPRLPRPRPRPWIYPRP | -0.187 |
| RRIRSRPPRLPRPRPRPYREPRP | 0.0503 |
| RRIRYRPPRLPRPRPRPKNPPRP | -0.315 |
| RRIRSRPPRLPRPRPRPSIAPRP | -0.167 |
| RRIRVRPPRLPRPRPRPYGCPRP | -0.00989 |
| RRIRCRPPRLPRPRPRPKQTPRP | -0.0521 |
| RRIRPRPPRLPRPRPRPAWGPRP | 0.503 |
| RRIRARPPRLPRPRPRPSIFPRP | -0.101 |
| RRIRIRPPRLPRPRPRPPKRPRP | 0.0802 |
| RRIRQRPPRLPRPRPRPHSQPRP | 0.0419 |
| RRIRKRPPRLPRPRPRPTARPRP | 0.508 |
| RRIRDRPPRLPRPRPRPRFPPRP | 1.75 |
| RRIRDRPPRLPRPRPRPMGAPRP | 1.43 |
| RRIRFRPPRLPRPRPRPFQSPRP | -0.00947 |
| RRIRGRPPRLPRPRPRPISDPRP | 0.385 |
| RRIRDRPPRLPRPRPRPNMFPRP | -0.0684 |
| RRIRTRPPRLPRPRPRPHPDPRP | -0.00834 |
| RRIRRRPPRLPRPRPRPTDIPRP | -0.771 |

| Sequence | shrunken log2 fold change |
| --- | --- |
| RRIRDRPPRLPRPRPRPIKLPRP | -0.213 |
| RRIRSRPPRLPRPRPRPVKKPRP | 0.0525 |
| RRIRYRPPRLPRPRPRPAQCPRP | -0.0254 |
| RRIRIRPPRLPRPRPRPRLSPRP | -0.325 |
| RRIRWRPPRLPRPRPRPAYQPRP | 0.106 |
| RRIRRRPPRLPRPRPRPYAGPRP | -0.137 |
| RRIRLRPPRLPRPRPRPYCEPRP | -0.135 |
| RRIRFRPPRLPRPRPRPVNLPRP | 0.025 |
| RRIRYRPPRLPRPRPRPASAPRP | 0.0949 |
| RRIRDRPPRLPRPRPRPWYAPRP | 0.00564 |
| RRIRNRPPRLPRPRPRPFIEPRP | -0.412 |
| RRIRPRPPRLPRPRPRPQKSPRP | 0.0462 |
| RRIRIRPPRLPRPRPRPCQIPRP | -0.0429 |
| RRIRNRPPRLPRPRPRPQSQPRP | -0.7 |
| RRIRSRPPRLPRPRPRPNWLPRP | 0.18 |
| RRIRTRPPRLPRPRPRPATLPRP | -0.197 |
| RRIRMRPPRLPRPRPRPNQTPRP | -0.0789 |
| RRIRQRPPRLPRPRPRPHVEPRP | -0.00703 |
| RRIRLRPPRLPRPRPRPCACPRP | -0.385 |
| RRIRERPPRLPRPRPRPWYGPRP | -1.02 |
| RRIRERPPRLPRPRPRPHDYPRP | 0.0456 |
| RRIRSRPPRLPRPRPRPLPGPRP | 0.0761 |
| RRIRFRPPRLPRPRPRPYKLPRP | -0.438 |
| RRIRCRPPRLPRPRPRPSDTPRP | -0.134 |
| RRIRQRPPRLPRPRPRPHQGPRP | 0.0866 |

| Sequence | shrunken log2 fold change |
| --- | --- |
| RRIRQRPPRLPRPRPRPQAYPRP | -0.0257 |
| RRIRPRPPRLPRPRPRPSVKPRP | -0.277 |
| RRIRYRPPRLPRPRPRPCWTPRP | -0.374 |
| RRIRVRPPRLPRPRPRPMWNPRP | -0.0504 |
| RRIRTRPPRLPRPRPRPHWYPRP | -0.135 |
| RRIRTRPPRLPRPRPRPLIEPRP | -0.325 |
| RRIRFRPPRLPRPRPRPQIEPRP | -0.24 |
| RRIRMRPPRLPRPRPRPTQEPRP | 0.433 |
| RRIRIRPPRLPRPRPRPSDNPRP | -0.421 |
| RRIRERPPRLPRPRPRPENDPRP | -0.0725 |
| RRIRWRPPRLPRPRPRPVSLPRP | 0.15 |
| RRIRIRPPRLPRPRPRPQLCPRP | -0.222 |
| RRIRERPPRLPRPRPRPQKRPRP | 0.462 |
| RRIRMRPPRLPRPRPRPWKGPRP | -0.00192 |
| RRIRRRPPRLPRPRPRPPDQPRP | 0.764 |
| RRIRTRPPRLPRPRPRPTCFPRP | -0.35 |
| RRIRPRPPRLPRPRPRPNLFPRP | 0.175 |
| RRIRYRPPRLPRPRPRPVQWPRP | -0.126 |
| RRIRNRPPRLPRPRPRPLYGPRP | -0.171 |
| RRIRMRPPRLPRPRPRPLWGPRP | 0.119 |
| RRIRSRPPRLPRPRPRPPNSPRP | -0.251 |
| RRIRIRPPRLPRPRPRPRAAPRP | 0.458 |
| RRIRNRPPRLPRPRPRPPTQPRP | 0.267 |
| RRIRFRPPRLPRPRPRPVWGPRP | 0.311 |
| RRIRERPPRLPRPRPRPFAGPRP | -1.68 |

| Sequence | shrunken log2 fold change |
| --- | --- |
| RRIRLRPPRLPRPRPRPNCKPRP | -0.143 |
| RRIRNRPPRLPRPRPRPIELPRP | -0.232 |
| RRIRWRPPRLPRPRPRPGSLPRP | 0.0223 |
| RRIRWRPPRLPRPRPRPNRYPRP | 0.0333 |
| RRIRRRPPRLPRPRPRPYRFPRP | -0.15 |
| RRIRMRPPRLPRPRPRPVSAPRP | 0.617 |
| RRIRHRPPRLPRPRPRPKLMPRP | 0.165 |
| RRIRKRPPRLPRPRPRPTYGPRP | 0.043 |
| RRIRRRPPRLPRPRPRPSIWPRP | 0.032 |
| RRIRHRPPRLPRPRPRPDICPRP | -0.622 |
| RRIRKRPPRLPRPRPRPYLPPRP | -0.354 |
| RRIRRRPPRLPRPRPRPDFFPRP | -0.00974 |
| RRIRNRPPRLPRPRPRPVFGPRP | 0.106 |
| RRIRGRPPRLPRPRPRPNSWPRP | 0.356 |
| RRIRCRPPRLPRPRPRPHFRPRP | -0.308 |
| RRIRPRPPRLPRPRPRPGTNPRP | 1.46 |
| RRIRSRPPRLPRPRPRPCHTPRP | 0.00383 |
| RRIRIRPPRLPRPRPRPWSIPRP | -0.211 |
| RRIRDRPPRLPRPRPRPLYYPRP | 0.176 |
| RRIRGRPPRLPRPRPRPHPHPRP | 0.399 |
| RRIRTRPPRLPRPRPRPGLLPRP | 0.0639 |
| RRIRLRPPRLPRPRPRPPDYPRP | -0.199 |
| RRIRKRPPRLPRPRPRPCWDPRP | 0.0719 |
| RRIRRRPPRLPRPRPRPKMEPRP | 0.282 |
| RRIRYRPPRLPRPRPRPAEYPRP | -0.58 |
